Here are results for eight variants from paper PMC7564666 (2020).

B1: GST-LASP1 (full length LIM and SH3 Protein 1, residues 1–261) [human] / argonaute 2 (Ago2), endogenous [human (endogenous in MDA-MB-231 variants 231S and Bone-Un)] (parent complex)
chain 1: MNPNCARCGKIVYPTEKVNCLDKFWHKACFHCETCKMTLNMKNYKGYEKKPYCNAHYPKQSFTMVADTPENLRLKQQSELQSQVRYKEEFEKNKGKGFSVVADTPELQRIKKTQDQISNIKYHEEFEKSRMGPSGGEGMEPERRDSQDGSSYRRPLEQQQPHHIPTSAPVYQQPQQQPVAQSYGGYKEPAAPVSIQRSAPGGGGKRYRAVYDYSAADEDEVSFQDGDTIVNVQQIDDGWMYGTVERTGDTGMLPANYVEAI
chain 2: not shown

Variants of B1 are the subject of one assay. Put plainly: GST pull-down, immunoblot; 1 mg of Bone-Un LASP1-KO total lysate; 1.5 nmol of each of the double-mutants; parent: 1. For orientation: A western blot detects proteins with antibodies after separation by electrophoresis.
On to chain 1 S146A, chain 1 Y171F, for which the ratio to parent is 1.29. On the same count and under the same terms, as for chain 1 S146A, chain 1 Y171D, the figure is 1.82.

On to chain 1 S146D, chain 1 Y171D, for which the ratio to parent is 0.9.

The next assay covers variants of B1. Put plainly: GST pull-down with purified proteins (direct binding), immunoblot; 100 ng of purified recombinant Ago2; 1.5 nmol of purified LASP1 double mutants; low exposure blot; parent: 1.
As for chain 1 S146A, chain 1 Y171F, the ratio to parent is 1.6. Consider chain 1 S146A, chain 1 Y171D, for which the ratio to parent came to 3.98.

The variants in a further assay derive from B1. Kind of assay: GST pull-down, immunoblot; 1 mg of Bone-Un LASP1 KO total lysate; 1.5 nmol of each LASP1 single-mutant protein; parent: 1.
In the case of chain 1 S146D, the ratio to parent is 3.23. For the variant chain 1 S146A, the ratio to parent was found to be 4.79.

With chain 1 Y171D, the ratio to parent amounted to 5. Turning to chain 1 Y171F, the ratio to parent is 0.27.

The variants in a further assay derive from B1. Put plainly: GST pull-down with purified proteins (direct binding), immunoblot; 100 ng of purified recombinant Ago2; 1.5 nmol of each purified single-mutant protein; high exposure blot; parent: 1.
As to chain 1 S146D, the ratio to parent is 0.39. Regarding chain 1 Y171D, the ratio to parent stood at 0.61.

For chain 1 Y171F, the ratio to parent is 0.08.

The variants in a further assay derive from B1. Put plainly: GST pull-down with purified proteins (direct binding), immunoblot; 100 ng of purified recombinant Ago2; 1.5 nmol of purified LASP1 double mutants; high exposure blot; parent: 1.
In the case of chain 1 S146D, chain 1 Y171D, the ratio to parent turned out to be 0.58. For the variant chain 1 S146D, chain 1 Y171F, the ratio to parent was 0.34.
